Experimental data reported in patent publication US20200385487A1 (PURDUE PHARMA L P, published 2020).
Where a chain is given by its changes, count along the chain named.

B1: chimeric antibody B278-LC0HC0 (antibody, V domains shown)
VH: EVQLQQSGAELMKPGASVKISCKATGYTFSSYWIEWVKQRPGHGLEWIGEILPGSASTKYNEKFKGKATFTADTSSNTAYMQLSSLTSEDSAVYYCARDYYYGSSYGFAYWGQGTLVTVSS
VL: QAVVTQESALTTSPGETVTLTCRSSTGAVTTSNYANWVQEKPDHLFTGLIGGTNNRGPGVPARFSGSLIGDKAALTITGAQTEDEAVYFCALWYSNHWVFGGGTKLTVLG
notes: also called Ab LC0HC0 (chimeric B278); chimeric B278 control antibody
B2: humanized tissue factor antibody B278-LC7HC6 variant (antibody, human IgG1, lambda, V domains shown)
VH: B1 VH with L11V, T25S, R40A, H43Q, K67R, A68V, S76T, Q82E, T87R, S91T
VL: QAVVTQEPSLTVSPGGTVTLTCRSSTGAVTTSNYANWVQQKPGQLPKGLISGTNNRGPWTTARFSGSILGDKAVLTLWGAHTEDEAVYYCALWYSNHWVFGGGTKLTVLG
notes: Full-length humanized antibody; Expressed transiently in CHO cells; also called Ab LC7HC6; PS-F09-2016-012
B3: LC7HC5 (antibody, V domains shown)
VH: QVQLQESGAEVKKPGASVKVSCKASGYTFSSYWIEWVRQAPGQGLEWMGEILPGSASTKYNEKFKGRVTMTADTSTNTVYMELSSLRSEDTAVYYCARDYYYGSSYGFAYWGQGTLVTVSS
VL: B2 VL
notes: Humanized B278 variant, expressed transiently in CHO cells; also called B278-LC7HC5; B278-LC7HC5 variant
B4: LC8HC5 (antibody, V domains shown)
VH: B3 VH
VL: QSALIQPPSVSGSPGQSVTISCRSSTGAVTTSNYANWVQQHPGTVPKPMIYGTNNRGPGVPDRFSGSKSGNTASMTISGLQAEDEADYFCALWYSNHWVFGGGTKLTVLG
notes: Humanized B278 variant, expressed transiently in CHO cells; also called B278-LC8HC5; B278-LC8HC5 variant
B5: LC8HC6 (antibody, V domains shown)
VH: B3 VH with Q1E, E6Q, K12M, V20I, R38K, M48I, M70F, V79A
VL: B4 VL
notes: Humanized B278 variant, expressed transiently in CHO cells; also called B278-LC8HC6; B278-LC8HC6 variant
B6: LC7HC4 (antibody, V domains shown)
VH: B3 VH with A72R, N77S
VL: B2 VL
notes: Humanized B278 variant, expressed transiently in CHO cells; also called B278-LC7HC4; B278-LC7HC4 variant
B7: LC8HC4 (antibody, V domains shown)
VH: B3 VH with A72R, N77S
VL: B4 VL
notes: Humanized B278 variant, expressed transiently in CHO cells; also called B278-LC8HC4; B278-LC8HC4 variant

Legend:
[1] = biological target: T1, Recombinant Human Coagulation Factor III (tissue factor), R&D Systems (human, UniProt P13726 33-251); assay: ELISA: 100 ng/well Recombinant Human Coagulation Factor III coated on plate, antibody titrated 1000 to 0.97 ng/ml, goat anti-human Fc-HRP, TMB, OD at 450 nm
T1 construct: Bought reagent
Method: The binding of humanized variants of TF antibody B278, including B278-LC7HC4, LC7HC5, LC7HC6, LC8HC4, LC8HC5, and LC8HC6 variants, to recombinant human coagulation factor III (tissue factor) was assessed by ELISA analysis. The chimeric antibody B278-LC0HC0 was used as a control. In brief, 100 ng/well of Recombinant Human Coagulation Factor III (R&D Systems, UK) was immobilized onto 96 well Maxisorp plates in coating buffer (0.5 mM NaHCO₃ brought to pH 9.5 by the addition of 0.5 mM Na₂CO₃) overnight at 4° C. Coating buffer was removed and the plates were washed once in PBS Tween (PBS-T) (0.05% (v/v) Tween 20). 200 μl per well of 3.0% (w/v) semi skim milk in PBS was added and the plates were agitated for 2 hours at room temperature. Plates were washed three times with PBS-T.
Purified humanized variants of the TF antibody B278 (LC7HC4; LC7HC5; LC7HC6; LC8HC4; LC8HC5; LC8HC6) were serially diluted from 1,000 ng/ml to 0.97 ng/ml in incubation buffer (PBS, 1% (w/v) BSA), and 100 μl added per well.
Following agitation for two hours at room temperature, the plate was washed three times with PBS-T. 100 μl/well of goat anti-human HRP (Fc specific) (Sigma, UK) (1:60,000 PBS) was added and plates incubated for one hour with agitation at room temperature. The plates were washed three times with PBS-T and once in PBS. 100 μl/well of 3,3′,5,5′-Tetramethylbenzidine (TMB) substrate solution was added and incubated at 37° C. for 10 minutes. 50 μl of 1M HCl were added per well and the plates immediately read at 450 nm on a Tecan Sunrise plate reader.

[2] = biological target: T2, recombinant soluble human tissue factor (hTF) (human, UniProt P13726 33-251); assay: SPR (Biacore X), soluble hTF immobilized on CM5 chip, antibody injected; global fit Langmuir 1:1
T2 construct: also called soluble hTF
Method: Binding properties of anti-hTF MAbs were evaluated using a Biacore X (Biacore Inc., Uppsala, Sweden). Briefly, a CM5 Biacore biosensor chip was docked into the instrument and activated with 55 μL of 1:1 NHS/EDC reagent (Biacore Inc.) at room temperature. The recombinant soluble hTF and BSA (10 μg/mL in 0.05 M acetate buffer, pH 4.5) were immobilized on the activated chip in flow cells 1 and 2, respectively. Immobilization was carried out at a flow rate of 5 μL/min until a resonance response of 1000-2000 RU was achieved. The chip was then blocked by injection of 55 μL of ethanolamine-HCl, pH 8.5, followed by five washes with 50 mM NaOH, 1 M NaCl.
To measure the binding of anti-hTF MAbs to the soluble hTF immobilized to the chip, 30 μL of anti-hTF MAbs at varying concentrations in Biacore running buffer (HBS-EP, Biacore Inc.) were injected over the sensor surface at a flow rate of 5 μL/min. Following completion of the injection phase, dissociation was monitored in BIAcore running buffer at the same flow rate for 360 sec. The surface was regenerated between injections using 30 μL of 50 mM NaOH-1 M NaCl. Individual sensorgrams were analyzed using […] software. Results for the Biacore/SPR binding analyses are shown in FIGS. 11A and 11B and Table 7.

Row | Binder | EC50 (read off the curve) [1] [mg/L] | binding result [1] | further results
1 | B1 | ~0.04 | – | Kd [2]: 0.0249 µM; koff [2]: 0.0011 s⁻¹; kon [2]: 43000 M⁻¹ s⁻¹
2 | B2 | – | – | Kd [2]: 0.0253 µM; koff [2]: 0.0007 s⁻¹; kon [2]: 28000 M⁻¹ s⁻¹
3 | B3 | ~0.05 | – | –
4 | B4 | – | no binding (tested: 1000 ng/ml) | –
5 | B5 | – | no binding (tested: 1000 ng/ml) | –
6 | B6 | ~0.06 | – | –
7 | B7 | – | no binding (tested: 1000 ng/ml) | –
